Source: paper PMC4856543

What was measured:
[1] = biological target: monomeric full-length BaL gp120 (HIV-1 isolate BaL); experiment: SPR; Biacore T-100, 25°C, 1:1 Langmuir model
[2] = biological target: ID1 (independent inner domain of gp120, first design, isolate 93TH057) (HIV-1 clade A/E isolate 93TH057); experiment: SPR; Biacore T-100, 25°C, 1:1 Langmuir model
[3] = biological target: single-chain gp120BaL-sCD4 complex (full-length single-chain) (HIV-1 isolate BaL | not stated); experiment: SPR; Biacore T-100, 25°C, 1:1 Langmuir model
[4] = biological target: ID2 (inner domain of gp120 stabilized by the C65-C115 disulfide, isolate 93TH057), from 293 cells (HIV-1 clade A/E isolate 93TH057); experiment: ITC; iTC200, 25°C, A32 IgG with FLSC or ID2; heats of dilution subtracted
[5] = biological target: single-chain gp120BaL-sCD4 complex (full-length single-chain) (HIV-1 isolate BaL | not stated); experiment: as above
[6] = biological target: ID2, stabilized inner domain of HIV-1 gp120 of clade A/E isolate 93TH057 (HIV-1 clade A/E isolate 93TH057); experiment: SPR; antibody immobilised, ID2 passed over at 0-200 nM; Biacore T-100, 25°C; 1:1 Langmuir model, BIAevaluation software; two experiments

mAb A32 (antibody) showed a Kd [1] of 3.2 nM, a koff [1] of 0.000437 s⁻¹ and a kon [1] of 139000 M⁻¹ s⁻¹. For the same substance, the Kd [2] was 9.3 nM, the koff [2] was 0.000785 s⁻¹ and the kon [2] was 85000 M⁻¹ s⁻¹. For the same substance, the Kd [3] was 0.23 nM, the koff [3] was 0.000102 s⁻¹ and the kon [3] was 443000 M⁻¹ s⁻¹. For the same substance, the Kd [4] was 9 nM, the dH [4] was -2.55 kcal/mol and the Kd [5] was 11.5 nM. For the same substance, the dH [5] was -3.15 kcal/mol, the Kd [6] was 0.17 nM and the koff [6] was 0.000275 s⁻¹. For the same substance, the kon [6] was 1.65e+06 M⁻¹ s⁻¹.
